Results from paper PMC12238573 (Nature Communications, 2025).
Blank lines part the entries; values can stand above or below the molecule they belong to.

Tests used:
[1] = target: Branchiostoma lanceolatum Class II PRPS (Branchiostoma lanceolatum); assay: SEC; lysate of HEK293T cells with exogenously expressed Class II PRPS; fractions analysed by Western blot
[2] = target: the molecule itself; assay: SEC; native whole-cell lysates of NIH3T3 AP1 KO and AP1/AP2 KO cells on Yarra SEC-2000 (1 kDa to 300 kDa); fractions analysed by Western blot

stoichiometry N [1]: 2 to 6
Molecule: Branchiostoma lanceolatum Class II PRPS (enzyme)

B1: PRPS2 (endogenous, mouse) (enzyme, UniProt Q9CS42 1-318, looked up)
chain: MPNIVLFSGSSHQDLSQRVADRLGLELGKVVTKKFSNQETSVEIGESVRGEDVYIIQSGCGEINDNLMELLIMINACKIASSSRVTAVIPCFPYARQDKKDKSRAPISAKLVANMLSVAGADHIITMDLHASQIQGFFDIPVDNLYAEPAVLQWIRENITEWRNCIIVSPDAGGAKRVTSIADRLNVEFALIHKERKKANEVDRMVLVGDVKDRVAILVDDMADTCGTICHAADKLLSAGATKVYAILTHGIFSGPAISRINSAAFEAVVVTNTIPQEDKMKHCSKIQVIDISMILAEAIRRTHNGESVSYLFSHVPL
notes: PRPS2, endogenous in mouse cells and tissues; also called P2; phosphoribosyl pyrophosphate synthetase 2; source: endogenous, NIH3T3 lysate (parental and CRISPR knockout lines); endogenous, C57BL/6 mouse liver, kidney and lung lysates
stoichiometry N [2]: 2
